Results reported in US20150025013A1.

Experiments:
[1] = target: (pro)renin receptor (PRR) on mpkCCD cells (UniProt Q9CYN9); assay: cell-based or functional assay
[2] = target: (pro)renin receptor (PRR), mouse (mouse) (UniProt Q9CYN9); assay: cell-based or functional assay
(pro)renin receptor (PRR), mouse (mouse), sequence (Q9CYN9 18-350): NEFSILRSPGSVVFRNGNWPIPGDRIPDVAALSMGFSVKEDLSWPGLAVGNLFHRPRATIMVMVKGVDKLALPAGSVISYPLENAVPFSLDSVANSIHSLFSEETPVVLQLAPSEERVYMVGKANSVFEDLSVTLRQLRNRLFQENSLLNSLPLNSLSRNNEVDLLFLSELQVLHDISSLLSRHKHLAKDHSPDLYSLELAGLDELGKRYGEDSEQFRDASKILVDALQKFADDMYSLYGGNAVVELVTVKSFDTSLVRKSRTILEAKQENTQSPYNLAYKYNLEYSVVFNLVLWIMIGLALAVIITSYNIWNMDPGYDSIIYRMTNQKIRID

(pro)renin receptor (PRR) on mpkCCD cells, sequence (Q9CYN9 18-350 limits assumed): as the sequence (Q9CYN9 18-350) above

Row | Substance | ENaC activity (Ieq) in mpkCCD cells, 10 nM for 5 min (control group 1.17+0.05 µA/cm2) [1] [µA/cm2] | pressor response (delta MAP) to ICV mouse prorenin alone in C57BI/6J mice [2] [mmHg] | pressor response (delta MAP) to ICV mouse prorenin in neuron-specific PRR knockout (Nefh-PRR) mice [2] [mmHg] | pressor response (delta MAP) to ICV mouse prorenin in wild-type mice [2] [mmHg]
1 | renin (cell culture experiments of Example 13) (enzyme) | 1.58 | – | – | –
2 | mouse prorenin (from UniProt P06281 22-402) (ligand) | – | 31.3 | 5 | 41
3 | prorenin (cell culture experiments of Example 13) (ligand) | 3.16 | – | – | –
